For orientation: Kd means the equilibrium constant for the complex coming apart.

These results are taken from PMC5153249.

For data set [1], the system named is eIF3 (a Box37) (Saccharomyces cerevisiae). Kind of data set: EMSA. The settings on record: mean of 2, Met-charged tRNAi, 30 mM HEPES-KOH pH 7.4, 100 mM KOAc, 3 mM Mg(OAc)2, 2 mM DTT, 1 mM GDPNP, 26 C, 2 h, native 4% THEM gel. In general terms: In EMSA bound probe runs differently from free probe, usually more slowly.
Data set [2] relates to eIF3 (i Q258R) (Saccharomyces cerevisiae). Put plainly: EMSA. The settings on record: mean of 2, Met-charged tRNAi, 30 mM HEPES-KOH pH 7.4, 100 mM KOAc, 3 mM Mg(OAc)2, 2 mM DTT, 1 mM GDPNP, 26 C, 2 h, native 4% THEM gel.
Data set [3] concerns eIF3 (c delta60) (Saccharomyces cerevisiae). Put plainly: EMSA. The following applies: mean of 2, Met-charged tRNAi, 30 mM HEPES-KOH pH 7.4, 100 mM KOAc, 3 mM Mg(OAc)2, 2 mM DTT, 1 mM GDPNP, 26 C, 2 h, native 4% THEM gel.
Data set [4] has as its system eIF3 (c GAP85) (Saccharomyces cerevisiae). Put plainly: EMSA. The following applies: mean of 2, Met-charged tRNAi, 30 mM HEPES-KOH pH 7.4, 100 mM KOAc, 3 mM Mg(OAc)2, 2 mM DTT, 1 mM GDPNP, 26 C, 2 h, native 4% THEM gel.
Data set [5] has as its system eIF3 (g KLF) (Saccharomyces cerevisiae). Kind of data set: EMSA. The following applies: mean of 2, Met-charged tRNAi, 30 mM HEPES-KOH pH 7.4, 100 mM KOAc, 3 mM Mg(OAc)2, 2 mM DTT, 1 mM GDPNP, 26 C, 2 h, native 4% THEM gel.
Data set [6] relates to eIF3 (a Box6) (Saccharomyces cerevisiae). Put plainly: EMSA. The settings on record: mean of 2, Met-charged tRNAi, 30 mM HEPES-KOH pH 7.4, 100 mM KOAc, 3 mM Mg(OAc)2, 2 mM DTT, 1 mM GDPNP, 26 C, 2 h, native 4% THEM gel.
Data set [7] relates to eIF3 (a delta8) (Saccharomyces cerevisiae). Put plainly: EMSA. The settings on record: mean of 2, Met-charged tRNAi, 30 mM HEPES-KOH pH 7.4, 100 mM KOAc, 3 mM Mg(OAc)2, 2 mM DTT, 1 mM GDPNP, 26 C, 2 h, native 4% THEM gel.
The subject of data set [8] is eIF3 a/b/c sub-complex (Saccharomyces cerevisiae). Put plainly: EMSA. The settings on record: mean of 2, Met-charged tRNAi, 30 mM HEPES-KOH pH 7.4, 100 mM KOAc, 3 mM Mg(OAc)2, 2 mM DTT, 1 mM GDPNP, 26 C, 2 h, native 4% THEM gel.
Data set [9] has as its system eIF3 WT (a/b/c/i/g) (Saccharomyces cerevisiae). Put plainly: EMSA. The settings on record: Met-charged tRNAi, 30 mM HEPES-KOH pH 7.4, 100 mM KOAc, 3 mM Mg(OAc)2, 2 mM DTT, 1 mM GDPNP, 26 C, 2 h, native 4% THEM gel.
Data set [10] relates to eIF3 (c Box12-SPW) (Saccharomyces cerevisiae). Kind of data set: EMSA. The following applies: mean of 2; Met-charged tRNAi; 30 mM HEPES-KOH pH 7.4, 100 mM KOAc, 3 mM Mg(OAc)2, 2 mM DTT, 1 mM GDPNP, 26 C, 2 h; native 4% THEM gel.
Data set [11] relates to eIF3 (a H725P) (Saccharomyces cerevisiae). Put plainly: EMSA. The following applies: mean of 2; Met-charged tRNAi; uncapped mRNA; 30 mM HEPES-KOH pH 7.4, 100 mM KOAc, 3 mM Mg(OAc)2, 2 mM DTT, 1 mM GDPNP, 26 C, 2 h; native 4% THEM gel.
In data set [12] the test system is eIF3 (a R731I) (Saccharomyces cerevisiae). Put plainly: EMSA. The following applies: mean of 2; Met-charged tRNAi; uncapped mRNA; 30 mM HEPES-KOH pH 7.4, 100 mM KOAc, 3 mM Mg(OAc)2, 2 mM DTT, 1 mM GDPNP, 26 C, 2 h; native 4% THEM gel.
The target in data set [13] is 43S pre-initiation complex (40S ribosomal subunit, eIF1, eIF1A and eIF2•GDPNP•Met-tRNAi ternary complex); called 48S PIC when AUG-containing model mRNA is added (yeast) (UniProt P32911). Put plainly: other; 43S PIC, no mRNA.
Data set [14] shares this target. Put plainly: native gel or EMSA; eIF3 (30-500 nM) titrated into 43S PICs without mRNA: 30 nM 40S, 1 µM eIF1, 1 µM eIF1A, 200 nM eIF2, 1 mM GDPNP•Mg2+, 2 nM [35S]-Met-tRNAi; 1X Recon buffer (30 mM HEPES-KOH pH 7.4, 100 mM KOAc pH 7.6, 3 mM Mg(OAc)2, 2 mM DTT); 26 °C, 2 h; apparent KD from a Hill fit, free eIF3 corrected for free ….
For data set [15], the target named is 48S pre-initiation complex (40S, eIF1, eIF1A, ternary complex, AUG-containing model mRNA) (S. cerevisiae) (UniProt P32911). Put plainly: other; 48S PIC, + mRNA.
Data set [16] has as its target 43S pre-initiation complex (40S ribosomal subunit, eIF1, eIF1A and eIF2•GDPNP•Met-tRNAi ternary complex); called 48S PIC when AUG-containing model mRNA is added (yeast) (UniProt P32911). Put plainly: native gel or EMSA; eIF3 (30-500 nM) titrated into 48S PICs: 1 µM uncapped AUG-containing model mRNA, 20 nM 40S, 1 µM eIF1, 1 µM eIF1A, 200 nM eIF2, 1 mM GDPNP•Mg2+, 2 nM [35S]-Met-tRNAi; 26 °C, 2 h; apparent KD from a Hill fit.

With 43S PIC (40S rRNA + Met-tRNAi), the dissociation constant (Kd) in [1] turned out to be 59.5 nM; in data set [2] (upper limit), 30 nM; in [3] (upper limit), 24 nM; in data set [4] (upper limit) it was 26.5 nM; in [5] (upper limit), 21.5 nM; in data set [6], 35 nM. The Kd in [7] is 87 nM; in data set [8], 92.5 nM; in data set [9] (mean of 43, 24, text <=38 nM, upper limit) it was 33.5 nM; in [10], 66.5 nM.
“48S PIC (40S rRNA + Met-tRNAi + AUG model mRNA)”: the dissociation constant Kd in data set [1] (uncapped mRNA) amounted to 83.5 nM; in data set [2] (uncapped mRNA) it was 48.5 nM; in data set [3] (uncapped mRNA) it was 46.5 nM; in data set [4] (uncapped mRNA), 38 nM; in [5] (uncapped mRNA), 52.5 nM; in data set [6] (uncapped mRNA), 38 nM. Besides, the Kd was 88.5 nM in data set [7] (uncapped mRNA); 108 nM in data set [8] (uncapped mRNA); 62.5 nM in [11]; 37.5 nM in data set [9] (mean of 2, uncapped mRNA); 50 nM in data set [12].
As for “eIF3a/b/c sub-complex lacking the i and g subunits (eIF3 purified from eIF3i DDKK cells) (from UniProt P38249 1-964; P06103 1-763; P32497 1-812)”, the values for the Kd in [13] and in data set [15] were 90 nM and 109 nM, respectively. In addition, the values for the fold decrease of apparent affinity against WT eIF3 in data set [14] and in [16] were 2 fold and 3 fold, respectively.
